Target: DENV1 prM protein with H98A (dengue virus 1 (DENV1), FGA/NA d1d strain)
Assay: co-IP

How did the co-IP at pH 6.0 as percent of that at pH 7.0 turn out when “DENV1 E protein with H244A (natural protein)” was run?
Its co-IP at pH 6.0 as percent of that at pH 7.0 is 33%.

From paper PMC4063126
